The results in this text go back to patent publication US20070148201A1 (Pieris, published 2007).

In experiment [1] the target is fusion construct of the CD4 V-domain and CD4 D1-domain of the human CD4 coreceptor (amino acids 1-184) with … (human, UniProt P01730 26-209). Put plainly: ELISA, mutein coated on plate, digoxigenin-conjugated CD4-VD1 titrated from 2000 nM, anti-digoxigenin Fab-AP detection, apparent KD from curve fit. The protocol:
(§1) After washing five times with 100 μl PBST/0.05 per well employing an automated ELISA plate washer, the wells were filled with 100 μl PBST containing 3% w/v non-fat dry milk powder (Vitalia), in order to saturate unspecific binding sites and incubated for one hour at room temperature. After blocking, the microtiter plate was washed two times with 100 μl PBST/0.05 as described above.
(§2) Then a dilution series of conjugates of digoxigenin and either the prescribed protein target CD4-VD1 or the unrelated control protein RNaseB, both produced as described in Example 25, was prepared in PBST starting from 2000 nM concentration and incubated for 1 h at room temperature. Subsequently, plates were washed again five times like above and 20 μl of an anti-digoxigenin-Fab-fragment-alkaline phosphatase-conjugate (Roche), diluted 1:1000 in PBST was added to each well and incubated for 1 hour at room temperature. Plates were washed again five times as described above and 20 μl of the fluorogenic substrate AttoPhos (Roche; prepared as described by the manufacturer) was added to detect bound CD4-VD1 by means of the attached digoxigenin groups. After 10 minutes at room temperature fluorescence was excited at a wavelength of 430 nm (±17.5 nm) and measured at 535 nm (÷12.5 nm) in a GENiosPlus plate reader.
The resulting binding curves were fitted by non-linear least squares regression as described in Example 8 and are depicted in FIG. 14 and FIG. 15. The values obtained for the apparent dissociation constants of the complexes between the BBP muteins CD4-2C3-K20, CD4-2C3-N22, CD4-2G3-H22, CD4-2G3-L22, CD4-7B4-K21, CD4-7B4-K23, and CD4-7B4-N14 and the prescribed target protein CD4-VD1 as well as for the complexes between the BBP muteins and the control protein RNaseB are summarized in Table 11.
On the technique in general: In an ELISA, binding on a coated surface is turned into a signal by an enzyme label.

The target of experiment [2] is T1, RNaseB (UniProt P61823 27-150).
T1 construct: also called unrelated control protein RNaseB
T1 sequence (looked up): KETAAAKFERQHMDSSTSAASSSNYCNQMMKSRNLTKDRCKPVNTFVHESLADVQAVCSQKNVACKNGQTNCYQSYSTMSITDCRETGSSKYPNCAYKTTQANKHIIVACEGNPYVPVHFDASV
The experiment can be described thus: ELISA: BBP mutein coated on the plate, digoxigenin-conjugated RNaseB titrated 0-2000 nM, detected with anti-digoxigenin Fab-alkaline phosphatase, fluorescence (Example 27). The procedure: as §1, §2

Experiment [3] concerns the target T2, extracellular domain of human CD154 (human, UniProt P29965 47-261).
T2 construct: extracellular domain; Colony screening: conjugate with digoxigenin
T2 sequence (looked up): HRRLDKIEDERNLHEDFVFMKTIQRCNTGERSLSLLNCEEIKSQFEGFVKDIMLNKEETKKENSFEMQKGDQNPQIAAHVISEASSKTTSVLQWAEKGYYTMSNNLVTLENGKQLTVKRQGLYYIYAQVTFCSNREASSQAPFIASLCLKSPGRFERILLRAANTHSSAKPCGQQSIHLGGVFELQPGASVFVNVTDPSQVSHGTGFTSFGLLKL
Put plainly: ELISA, CD154 coated on plate, mutein titrated from 2000 nM, anti-Strep-tag II-HRP detection, apparent KD from curve fit. The protocol:
as §1
Then a dilution series of the muteins from Example 16 in SA-buffer was prepared in PBST starting from 2000 nM concentration and incubated for 1 h at room temperature. Subsequently, plates were washed again five times like above and 20 μl of an anti-Strep-tag® II monoclonal antibody-HRP-conjugate (IBA), diluted 1:1000 in PBST was added to each well and incubated for 1 hour at room temperature. Plates were again washed five times as described above and 20 μl of the fluorogenic HRP-substrate QuantaBlu™ (diluted as described by the manufacturer) was added to detect bound BBP muteins by means of the attached anti-Strep-tag® II monoclonal antibody-HRP-conjugate. After 10 minutes at room temperature fluorescence was excited at a wavelength of 320 nm (±12.5 nm) and measured at 430 nm (±17.5 nm) in a GENiosPlus plate reader.
The resulting binding curves were fitted by non-linear least squares regression as described in Example 8 and are depicted in FIG. 11. […]

In the next experiment the target is T3, BSA (UniProt P02769 25-607).
T3 construct: Control protein coated on the ELISA plate; also called unrelated control protein BSA
T3 sequence (P02769 25-607 limits assumed): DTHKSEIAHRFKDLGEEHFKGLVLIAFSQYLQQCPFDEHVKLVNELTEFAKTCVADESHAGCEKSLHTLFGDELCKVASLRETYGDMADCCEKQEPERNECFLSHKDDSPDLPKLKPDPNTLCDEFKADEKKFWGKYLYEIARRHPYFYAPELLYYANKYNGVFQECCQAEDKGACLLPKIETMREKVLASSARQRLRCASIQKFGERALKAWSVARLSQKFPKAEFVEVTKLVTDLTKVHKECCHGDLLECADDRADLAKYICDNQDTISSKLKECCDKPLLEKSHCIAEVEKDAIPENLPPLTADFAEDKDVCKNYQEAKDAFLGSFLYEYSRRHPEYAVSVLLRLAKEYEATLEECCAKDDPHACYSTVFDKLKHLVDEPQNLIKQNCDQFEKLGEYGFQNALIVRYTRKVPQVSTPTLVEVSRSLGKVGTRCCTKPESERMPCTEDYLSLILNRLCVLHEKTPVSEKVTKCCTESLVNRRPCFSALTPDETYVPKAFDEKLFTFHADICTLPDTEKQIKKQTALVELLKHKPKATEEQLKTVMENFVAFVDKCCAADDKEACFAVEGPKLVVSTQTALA
The experiment can be described thus: ELISA: BSA coated on the plate as control, BBP mutein titrated 0-2000 nM, detected with anti-Strep-tag II antibody-HRP, fluorescence (Example 17).

The target in experiment [4] is T1, RNaseB. Put plainly: ELISA, RNaseB coated on plate, anti-T7-HRP detection. The protocol: (§3) Afterwards, the wells were washed and blocked as described in Example 8.
(§4) Then, a dilution series of the BBP muteins from Example 11 in SA-buffer was prepared in PBST starting from 1000 nM concentration and incubated for 1 h at room temperature. Subsequently, plates were washed again five times, anti-T7 monoclonal antibody-HRP-conjugate was added and incubated for 1 hour at room temperature followed by washing and addition of fluorogenic HRP-substrate QuantaBlu™ as described in Example 8. After 10 minutes at room temperature fluorescence was excited at a wavelength of 320 nm (±12.5 nm) and measured at 430 nm (±17.5 nm) in a GENiosPlus plate reader.

For experiment [5], the target named is T4, type I horse ferritin (horse, UniProt P02791 2-175; Q8MIP0 2-182, limits assumed).
T4 construct: the natural protein is a shell of light and heavy chains
T4 sequence (P02791 2-175 limits assumed, chain 1 of 2): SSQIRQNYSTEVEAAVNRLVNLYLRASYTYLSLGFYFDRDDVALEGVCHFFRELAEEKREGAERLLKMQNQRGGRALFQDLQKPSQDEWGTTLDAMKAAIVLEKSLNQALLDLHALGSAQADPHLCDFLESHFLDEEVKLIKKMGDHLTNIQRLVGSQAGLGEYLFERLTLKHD
T4 sequence (Q8MIP0 2-182 limits assumed, chain 2 of 2): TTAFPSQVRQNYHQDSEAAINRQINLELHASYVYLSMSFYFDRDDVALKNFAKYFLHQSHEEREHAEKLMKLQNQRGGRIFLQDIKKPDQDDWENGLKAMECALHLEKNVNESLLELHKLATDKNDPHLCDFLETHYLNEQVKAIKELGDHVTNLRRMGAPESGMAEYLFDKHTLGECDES
Put plainly: ELISA, ferritin coated on plate, mutein titrated from 1000 nM, anti-T7-HRP detection, apparent KD from curve fit. The protocol: as §3, §4
The resulting binding curves were fitted by non-linear least squares regression as described in Example 8 and are depicted in FIG. 8. The values obtained for the apparent dissociation constants of the complexes between the BBP muteins and the prescribed target ferritin are summarized in Table 5.

Experiment [6] concerns the target T4, type I horse ferritin. Put plainly: high-throughput ELISA screening, crude cell extract, ferritin or aldolase coated on plate, anti-T7-HRP detection; Fer-N22 is one of the clones taken on from these 14. The protocol: For the detection of binding, these cell extracts were tested for their reactivity on the prescribed target type I horse ferri tin as well as the unrelated control protein aldolase in ELISA experiments. Therefore, wells of black Fluotrac 600 ELISA plates (Greiner; 384 well) were coated overnight with 20 μl of a solution of ferritin (Sigma) or aldolase (Roche) at 4° C., each at a concentration of 20 μg/ml in PBS. Plates were washed five times with 100 μl PBST/0.05 per well with an automated ELISA plate washer (Molecular Devices) leaving a residual volume of 10 μl of the washing buffer in each well after the last washing step. Residual binding sites were blocked by incubation with 100 μl PBST/0.05 containing 2% w/v BSA for 2 h at room temperature. Afterwards, plates were again washed five times as described above.
For complex formation between the BBP muteins and the immobilized proteins, the wells were incubated with 10 μl of the blocked cell extract from above for 1 hour at room temperature. […] After 60 minutes at room temperature fluorescence was excited at a wavelength of 320 nm (±12.5 nm) and measured at 430 nm (±17.5 nm) in a GENiosPlus plate reader (Tecan).

B1: BBP mutein CD4-7B4-N14 (designed binder)
chain: DVYHDGACPEVKPVDNFDWSQYHGKWWEVAKYPNRAEIGGKCGWAEYTPEGKSVKVSNYHVIKQWEKFIEGTAYPVGDSKIGKIYHSLTGTGSTKENVFNVLSTDNKNYIIGYYCNYHESRKGHRDFVWVLSRSMVLTGEAKTAVENYLIGSPVVDSQKLVYSDFSEAACKVNN
For the molecule B1, the Kd in experiment [1] turned out to be 177 nM. In addition, in the experiment with RNaseB [2], the binding result is recorded as “no binding (tested: 2000 nM)”.

B2: BBP mutein CD154-13-10-4 (designed binder)
chain: DVYHDGACPEVKPVDNFDWSQYHGKWWEVAKYPNSHETGGKCGWAEYTPEGKSVKVSNYHVITPHERFIEGTAYPVGDSKIGKIYHSLTWIGTTKENVFNVLSTDNKNYIIGYYCSYSEAGKGHQDFVWVLSRSMVLTGEAKTAVENYLIGSPVVDSQKLVYSDFSEAACKVNN
Consider B2, for which the Kd in experiment [3] was found to be 174 nM. Also, the binding result with BSA was “no binding (tested: 2000 nM)”.

B3: BBP mutein CD4-2G3-L22 (designed binder)
chain: DVYHDGACPEVKPVDNFDWSQYHGKWWEVAKYPNIAELGGKCGWAEYTPEGKSVKVSNYHVINWNEMFIEGTAYPVGDSKIGKISHSLTKVGQTKENVFNVLSTDNKNYIIGYYCQYSERAKGHLDFVWVLSRSMVLTGEAKTAVENYLIGSPVVDSQKLVYSDFSEAACKVNN
Consider B3, for which the Kd in experiment [1] was found to be 200 nM. In addition, in the experiment with RNaseB [2], the binding result is “no binding (tested: 2000 nM)”.

B4: BBP mutein CD4-7B4-K23 (designed binder)
chain: DVYHDGACPEVKPVDNFDWSQYHGKWWEVAKYPNGNELRGKCGWAEYTPEGKSVKVSNYHVINTSEGFIEGTAYPVGDSKIGKIYHSLTNTGMTKENVFNVLSTDNKNYIIGYYCSWEVSKGHHDFVWVLSRSMVLTGEAKTAVENYLIGSPVVDSQKLVYSDFSEAACKVNNS
As for B4, the Kd in experiment [1] was determined as 169 nM. In addition, in the experiment with RNaseB [2], the binding result is “no binding (tested: 2000 nM)”.

B5: BBP mutein Fer-N22 (designed binder)
chain: DVYHDGACPEVKPVDNFDWSQYHGKWWEVAKYPNGGESPGKCGWAEYTPEGKSVKVSNYHVIKKRERFIEGTAYPVGDSKIGKICHSLTWSGLTKENVFNVLSTDNKNYIIGYYCKYKERKKGHGDFVWVLSRSMVLTGEAKTAVENYLIGSPVVDSQKLVYSDFSEAACKVNN
notes: Tested as expressed from pBBP47: C-terminal T7 tag followed by Strep-tag II
For the molecule B5, the binding result with RNaseB [4] is listed as “no binding (tested: dilution series starting from 1000 nM)”. Further, the Kd with type I horse ferritin [5] is 45 nM. Besides, the “signal-to-control ratio (ferritin against aldolase)” value with type I horse ferritin [6] is more than 5.

B6: BBP mutein CD154-13-10-1 (designed binder)
chain: DVYHDGACPEVKPVDNFDWSQYHGKWWEVAKYPNQIEQGGKCGWAEYTPEGKSVKVSNYHVIYASEDFIEGTAYPVGDSKIGKIYHSLTSSGVTKENVFNVLSTDNKNYIIGYYCGYREAPKGHMDFVWVLSRSMVLTGEAKTAVENYLIGSPVVDSQKLVYSDFSEAACKVNN
Turning to B6, the Kd in experiment [3] amounted to 89 nM. Also, the binding result in the experiment with BSA was “no binding (tested: 2000 nM)”.

B7: BBP mutein CD4-2C3-K20 (designed binder)
chain: DVYHDGACPEVKPVDNFDWSQYHGKWWEVAKYPNTSEHSGKCGWAEYTPEGKSVKVSNYHVIKKKERFIEGTAYSAGDSKIGKIYHSLTSVGKTKENVFNVLSTDNKNYIIGYYCSYKEKTKGHGDFVWVLSRSMVLTGEAKTAVENYLIGSPVVDSQKLVYSDFSEAACKVNN
Turning to B7, the Kd in experiment [1] amounted to 136 nM. Further, the binding result with RNaseB [2] is “no binding (tested: 2000 nM)”.

B8: BBP mutein CD4-2G3-H22 (designed binder)
chain: DVYHDGACPEVKPVDNFDWSQYHGKWWEVAKYPNMTEVKGKCGWAEYTPEGKSVKVSNYHVIREKEWFIEGTAYPVGDSKIGKIYHSLTISGLTKENVFNVLSTDDKNYIIGYYCKYMELWKGHRDFVWVLSRSMVLTGEAKTAVENYLIGSPVVDSQKLVYSDFSEAACKVNN
In the case of B8, the Kd in experiment [1] is 105 nM. Moreover, the binding result with RNaseB [2] is on record as “no binding (tested: 2000 nM)”.

B9: BBP mutein CD4-2C3-N22 (designed binder)
chain: DVYHDGACPEVKPVDNFDWSQYHGKWWEVAKYPNAKESPGKCGWAEYTPEGKSVKVSNYHVIQRLEGFIEGTAYPVGDSKIGKIYHSLTTWGLTKENVFNVLSTDNKNYIIGYYCGYVEKSKGHPDFVWVLSRSMVLTGEAKTAVENYLIGSPVVDSQKLVYSDFSEAACKVNN
Regarding B9, in experiment [1], the Kd was found to be 185 nM. Also, in the experiment with RNaseB [2], the binding result is on record as “no binding (tested: 2000 nM)”.
